{
  "source": "patent US11957763B2",
  "about": "“Sulfamide linkers for use in bioconjugates” (SYNAFFIX B.V., priority 2016, dated 2024)",
  "assay_type_in_all_cases": "biochemical",
  "key": {"glycans on glycoproteins": {"system": "glycans on glycoproteins", "test": "pH at which the endoglycosidase activity operates", "from_the_text": "Trimming of glycoproteins is known in the art, from e.g. WO 2007/133855 or WO 2014/065661."}, "Trastuzumab": {"system": "Trastuzumab", "test": "Trimming of trastuzumab by EndoSH", "conditions": "0.1 w/w % EndoSH, 37° C., after 1 hour, 25 mM Tris buffer pH 8, MS analysis", "method": "Trastuzumab (obtained from Epirus biopharma (Utrecht, The Netherlands)) in 25 mM Tris buffer pH 8), (14 mg/mL) was trimmed using a concentration of either 0.1 or 1 w/w % EndoSH. The reactions, 350 μg trastuzumab (25 μL) and the appropriate amount of EndoSH, were stirred at 37° C. and analyzed by MS analysis overtime, 1 to 3 hours. Samples were subjected to Fabricator treatment prior to analysis.\n(§1) Prior to mass spectral analysis, IgGs were either treated with DTT, which allows analysis of both light and heavy chain, or treated with Fabricator™ (commercially available from Genovis, Lund, Sweden), which allows analysis of the Fc/2 fragment. For analysis of both light and heavy chain, a solution of 20 μg (modified) IgG was incubated for 5 minutes at 37° C. with 100 mM DTT in a total volume of 4 μL. If present, azide-functionalities are reduced to amines under these conditions. For analysis of the Fc/2 fragment, a solution of 20 μg (modified) IgG was incubated for 1 hour at 37° C. with Fabricator™ (1.25 U/μL) in phosphate-buffered saline (PBS) pH 6.6 in a total volume of 10 μL. After reduction or Fabricator-digestion the samples were washed trice with milliQ using an Amicon Ultra-0.5, Ultracel-10 Membrane (Millipore) resulting in a final sample volume of approximately 40 μL. Next, the samples were analyzed by electrospray ionization time-of-flight (ESI-TOF) on a JEOL AccuTOF. […]"}, "[1]": {"system": "Trastuzumab having high-mannose glycans", "test": "Trimming of high-mannose trastuzumab by fusion protein EndoSH", "conditions": "1 w/w % EndoSH, 37° C., after 3 hours, 25 mM Tris buffer pH 8, MS analysis", "method": "Trastuzumab having high-mannose glycans (obtained via transient expression in CHO K1 cells in the presence of kifunensine performed by Evitria (Zurich, Switzerland)) (14 mg/mL) in 25 mM Tris buffer pH 8, was trimmed using a concentration of either 0.1 or 1 w/w % EndoSH. The reactions, 350 μg high-mannose trastuzumab (25 μL) and the appropriate amount of EndoSH, were stirred at 37° C. and analyzed by MS analysis over time, 1-3 hours. Samples were subjected to Fabricator treatment prior to analysis.\nas §1, with “After reduction or Fabricator-digestion the samples were washed trice with milliQ using an Amicon Ultra-0.5, Ultracel-10 Membrane (Millipore) resulting in a final sample volume of approximately 40 μL.” left out"}},
  "data": [
    {"molecule": "EndoSH: fusion enzyme of endoglycosidases EndoS and EndoH connected via a -(G4S)3-(His)6-(G4S)3- linker, SEQ ID NO: 1 (protein, Fusion protein EndoSH) MPSIDSLHYLSENSKKEFKEELSKAGQESQKVKEILAKAQQADKQAQELAKMKIPEKIPMKPLHGPLYGGYFRTWHDKTSDPTEKDKVNSMGELPKEVDLAFIFHDWTKDYSLFWKELATKHVPKLNKQGTRVIRTIPWRFLAGGDNSGIAEDTSKYPNTPEGNKALAKAIVDEYVYKYNLDGLDVDVEHDSIPKVDKKEDTAGVERSIQVFEEIGKLIGPKGVDKSRLFIMDSTYMADKNPLIERGAPYINLLLVQVYGSQGEKGGWEPVSNRPEKTMEERWQGYSKYIRPEQYMIGFSFYEENAQEGNLWYDINSRKDEDKANGINTDITGTRAERYARWQPKTGGVKGGIFSYAIDRDGVAHQPKKYAKQKEFKDATDNIFHSDYSVSKALKTVMLKDKSYDLIDEKDFPDKALREAVMAQVGTRKGDLERFNGTLRLDNPAIQSLEGLNKFKKLAQLDLIGLSRITKLDRSVLPANMKPGKDTLETVLETYKKDNKEEPATIPPVSLKVSGLTGLKELDLSGFDRETLAGLDAATLTSLEKVDISGNKLDLAPGTENRQIFDTMLSTISNHVGSNEQTVKFDKQKPTGHYPDTYGKTSLRLPVANEKVDLQSQLLFGTVTNQGTLINSEADYKAYQNHKIAGRSFVDSNYHYNNFKVSYENYTVKVTDSTLGTTTDKTLATDKEETYKVDFFSPADKTKAVHTAKVIVGDEKTMMVNLAEGATVIGGSADPVNARKVFDGQLGSETDNISLGWDSKQSIIFKLKEDGLIKHWRFFNDSARNPETTNKPIQEASLQIFNIKDYNLDNLLENPNKFDDEKYWITVDTYSAQGERATAFSNTLNNITSKYWRVVFDTKGDRYSSPVVPELQILGYPLPNADTIMKTVTTAKELSQQKDKFSQKMLDELKIKEMALETSLNSKIFDVTAINANAGVLKDCIEKRQLLKKGGGGSGGGGSGGGGSHHHHHHEFGGGGSGGGGSGGGGSAPAPVKQGPTSVAYVEVNNNSMLNVGKYTLADGGGNAFDVAVIFAANINYDTGTKTAYLHFNENVQRVLDNAVTQIRPLQQQGIKVLLSVLGNHQGAGFANFPSQQAASAFAKQLSDAVAKYGLDGVDFDDEYAEYGNNGTAQPNDSSFVHLVTALRANMPDKIISLYNIGPAASRLSYGGVDVSDKFDYAWNPYYGTWQVPGIALPKAQLSPAAVEIGRTSRSTVADLARRTVDEGYGVYLTYNLDGGDRTADVSAFTRELYGSEAVRTP", "values": [
      {"measurement": "pH at which both activities (EndoS and EndoH) of the fusion enzyme function smoothly", "setting": "glycans on glycoproteins", "result": "7-8"},
      {"measurement": "conversion to the trimmed product, trimmed to the core GlcNAc sugar residue", "setting": "Trastuzumab", "result": "Full conversions"},
      {"measurement": "conversion to the trimmed product, trimmed to the core GlcNAc sugar residue", "setting": "[1]", "result": "Full conversions"}
    ]}
  ]
}
